The target in test [1] is GFP 1-9 OPT (Aequorea victoria). Put plainly: split GFP complementation, sandwich format.
Test [2] has as its target sulfite reductase-GFP S11 wild type (Pyrobaculum aerophilum; Aequorea victoria). Put plainly: split GFP complementation in vitro, soluble lysate with excess purified fusion protein.

For 2 substances, fold increase of complementation rate compared to the starting strand construct and fold improvement of in vitro complementation relative to the same amount of refolded superfolder GFP 1-10 results are on record in patent publication US20140141415A1.

As for “(GFP S10 SM5)-L1-sulfite reductase-L2-(GFP S11 SM5)”, the fold increase of complementation rate compared to the starting strand construct in test [1] stood at 20 fold.
As to GFP 1-10 OPT, the fold improvement of in vitro complementation relative to the same amount of refolded superfolder GFP 1-10 in test [2] was 80 fold.
